The supplement of paper PMC10201428
± gives the standard deviation of the averaged measurements.

These sequences were tested on VchCAST RNA-guided transposition machinery (E. coli BL21(DE3) host, lacZ target) (assay: relative integration efficiency (T-RL orientation) vs wild-type transposon end (log2 (normalized fold change)); transposon end mutated: right end (5 bp flank + 75 bp right end); higher = more efficient transposition).
Outline: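 Barcode abundances in input plasmids and in genomic integration junctions were obtained by PCR amplification and Illumina sequencing. These came from E. coli BL21(DE3) co-transformed with a T7-driven effector plasmid and a pUC57 donor carrying 1549 left-end or 1849 right-end transposon variants, then plated with 0.1 mM IPTG at 37°C for 18 h. Relative integration efficiency is the output/input fold change, normalised to reference barcodes and log-transformed.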

Sequence | relative integration efficiency (log2)
ACATTTGTTGATACAACCATAAAATGATAATTAATAATCACCCATAAATTGATAATTATCAACAAACGCCCGGTCGCGGTACTCTGATCATAGTCAGACCAACATTGCTACGACCCGTATTCGCACC | -2.77 ± 0.31
ACATTTGTTGATACAACCATAAGTTGATATTTTCAACCATAAAATGATAATTATCACAACCATATATTGATATCTCCTCTGATCATAGTCAGACCAACATTGCTACGACCCGTATTCGCACCGACAC | -0.078 ± 0.041
ACATTTGTTGATACAACCATAAAATGATAATTACACCCATAAATTGATAATTACCACTCCCAATTTAACTATAACGCTCTGATCATAGTCAGACCAACATTGCTACGACCCGTATTCGCACCGACAC | -0.782 ± 0.24
ACATTTGTTGATACAACCATAAAATGATCATTACACCCATCAATTGATAATTATCCCACCCAATTTAACTATAACGCTCTGATCATAGTCAGACCAACATTGCTACGACCCGTATTCGCACCGACAC | -2.65 ± 0.42
ACATTTGTTGATACAACCATAAAATGATAATTACAGGCATAAATTGATAATTATCACACCCATAAATTGATATTGCCTCTGATCATAGTCAGACCAACATTGCTACGACCCGTATTCGCACCGACAC | -0.00584 ± 0.032
ACATTTGTTGAATCAACCATAAAATGATAATTACACCCATAAATTGATAATTATCACACCCATAAATTGATATTGCCTCTGATCATAGTCAGACCAACATTGCTACGACCCGTATTCGCACCGACAC | 0.38 ± 0.14
ACATTTGTTGATACAACCATAAGTTGATATTTTCACCCATAAATTGATATTGCTCACAACCATAAAATGATAATTACTCTGATCATAGTCAGACCAACATTGCTACGACCCGTATTCGCACCGACAC | -0.631 ± 0.13
ACATTTGTTGATACAACCATATTTTGATAATTACACCCATATTATGATAATTATCACACCCATATTATGATATTGCCTCTGATCATAGTCAGACCAACATTGCTACGACCCGTATTCGCACCGACAC | -0.721 ± 0.17
ACATTTGTTGATACAACCATAAGTTGATATTTTCAACCATAAAGTGATATTTATCACAACCATAAAATGATAATTACTCTGATCATAGTCAGACCAACATTGCTACGACCCGTATTCGCACCGACAC | -0.0697 ± 0.03
ACATTTGTTGATACAACCATTAAATGATAATTACACCCATATATTGATAATTATCACACCCAATTTAACTATAACGCTCTGATCATAGTCAGACCAACATTGCTACGACCCGTATTCGCACCGACAC | -0.809 ± 0.018
ACATTTGTTGATACAACCATAAAATGATAATGCACCCCATAAATTGATAATTATCACACCCATAAATTGATATTGCCTCTGATCATAGTCAGACCAACATTGCTACGACCCGTATTCGCACCGACAC | -1.24 ± 0.24
ACATTTGTTGATACAACCATAAAATGATAATTTCACCCATAAATTGATAATTTTCACACCCATAAATTGATATTGGCTCTGATCATAGTCAGACCAACATTGCTACGACCCGTATTCGCACCGACAC | -0.335 ± 0.13
ACATTTGTTGATACAACCATAAGTTGATATTTTCACCCATAAATTGATATTGCTCACAACCATAAAGTGATATTTACTCTGATCATAGTCAGACCAACATTGCTACGACCCGTATTCGCACCGACAC | -0.377 ± 0.053
ACATTTGTTGATACAACCATAAAATGATAATTACACCCATAAATTGATAATTATCACACCCATAAATTGATATTGCCTCTGATCATAGTCTGTGATTGTTATCACATTTCAGACCAAGCACCGACAC | -0.0662 ± 0.076
ACATTTGTTGATACAACCATAAAATGATAATTACACCCATAAATTGATAATTATCACACCCATAAATTGATATTGCCTCTGATCATAGTCAGACCCAACCATAAAATGATAATTAAAGCACCGACAC | 0.0847 ± 0.29
ACATTTGTTGATACAACCATAAAATGATAATTAATAATTATTTATCACCCATAAATTGATAATTATCAACAAACGCCCGGTCGCGGTACTCTGATCATAGTCAGACCAACATTGCTACGACCCGTAT | -0.654 ± 0.39

Sequence | relative integration efficiency (log2)
ACATTTGTTGATACACCCATAAATTGATATTGCCAACCATAAAATGATAATTATCACAACCATAAGTTGATATTTTCTCTGATCATAGTCAGACCAACATTGCTACGACCCGTATTCGCACCGACAC | -0.46 ± 0.23
ACATTTGTTGATACAACCATACCCTGATAATTACACCCATACCGTGATAATTATCACACCCATACCGTGATATTGCCTCTGATCATAGTCAGACCAACATTGCTACGACCCGTATTCGCACCGACAC | -4.24 ± 0.2
ACATTTGTTGATACAACCATATATTGATATCTCCACCCATAAATTGATATTGCTCACACCCATAAATTGATAATTACTCTGATCATAGTCAGACCAACATTGCTACGACCCGTATTCGCACCGACAC | -0.617 ± 0.12
ACATTTGTTGATACAACCATAAAATCATCATTACACCCATAAATTGATAATTATCCCACCCCATTTAACTATAACGCTCTGATCATAGTCAGACCAACATTGCTACGACCCGTATTCGCACCGACAC | -2.81 ± 0.49
ACATTTGTTGATACAACCATAAAATCATCATTACACCCATCAATTGATAATTATCACACCCAATTTAACTATAACGCTCTGATCATAGTCAGACCAACATTGCTACGACCCGTATTCGCACCGACAC | -4.74 ± 0.38
ACATTTGTTGATACAACCATAATTTGATAATTACACCCATAATATGATAATTATCACACCCATAATATGATATTGCCTCTGATCATAGTCAGACCAACATTGCTACGACCCGTATTCGCACCGACAC | -0.651 ± 0.15
ACATTTGTTGATACAACCATAAAATGATAATTACACCCATAAATTGATCATTATCACCCCCAATTTAACTATAACGCTCTGATCATAGTCAGACCAACATTGCTACGACCCGTATTCGCACCGACAC | -1.35 ± 0.22
ACATTTGTTGATACAACCATAAAATGATAATTACACCCATAAATTGATAATTATCACACCCATAAATTGATATTGCCTCTGATAACTTCGTATAATGTATGCTATACGAAGTTATTCGCACCGACAC | -0.484 ± 0.19
ACAAATGTTGATACAACCATAAAATGATAATTACACCCATAAATTGATAATTATCACACCCATAAATTGATATTGCCTCTGATCATAGTCAGACCAACATTGCTACGACCCGTATTCGCACCGACAC | 0.215 ± 0.12
ACATTTGTTGATACACCCATAAATTGATATTGCCAACCATAAAGTGATATTTATCACAACCATATATTGATATCTCCTCTGATCATAGTCAGACCAACATTGCTACGACCCGTATTCGCACCGACAC | -0.78 ± 0.17
ACATTTGTTGATACAACCATAAAAGTCGAATTACACCCATAAATTGATAATTATCACACCCATAAATTGATATTGCCTCTGATCATAGTCAGACCAACATTGCTACGACCCGTATTCGCACCGACAC | -2.69 ± 0.26
ACATTTGTTGATACAACCATAAAATGATAATTACACCCATAAATTGATAAAATACACACCCATAAATTGATATTGCCTCTGATCATAGTCAGACCAACATTGCTACGACCCGTATTCGCACCGACAC | -0.37 ± 0.071
ACATTTGTTGATACAACCATAAAATGATAATTACACCCATTTATTGATAATTATCACACCCATAAATTGATATTGCCTCTGATCATAGTCAGACCAACATTGCTACGACCCGTATTCGCACCGACAC | -0.33 ± 0.029
ACATTTGTTGATACAACCATAAAATGATAATTACACCCATAAATTGATAATTATCACACCCATAAATTGATATTGCCGATGATCATAGTCAGACCAACATTGCTACGACCCGTATTCGCACCGACAC | 0.336 ± 0.0049
ACATTTGTTGATACACCCATAAATTGATAATTACACCCATAAATTGATATTGCTCACAACCATAAGTTGATATTTTCTCTGATCATAGTCAGACCAACATTGCTACGACCCGTATTCGCACCGACAC | -0.802 ± 0.24
ACATTTGTTGATACAACCATAAAATGATAATTACACCCATAAATTGATATTGCTCACAACCATAAGTTGATATTTTCTCTGATCATAGTCAGACCAACATTGCTACGACCCGTATTCGCACCGACAC | -0.473 ± 0.17
